A short description of this data set: label from the status in PepcDB records.
For “WKPELDELARRENFAQQMGGIDKVKRQHDQGRLTVRERIDRLSDAGSFHEIGAVAGLGEYDANGELINLTPANCVFGRAKIDGRTVVVVGDDFTVRGGSADASIHAKPQMAEEMAHDYRLPIIRVIEGSGGGGSVRTIESKGAANLPGGVDGTRWYWYTTAN”, the protein production result is recorded as “failed”.
Turning to “MSLQSQPIALELIVRNHPGVMTHICGLFARRAFNVDGILCLPMKNSDKSRIWLLVQKDERLMQMVSQVEKLEDVKEVRFSDDLRVFEQMESYLN”, the protein production entry is given as “not failed”.
Regarding “MTFSKELREASRPIIDDIYNDGFIQDLLAGKLSNQAVRQYLRADASYLKEFTNIYAMLIPKMSSMEDVKFLVEQIEFMLEGEVEAHEVLADFINEPYEEIVKEKVWPPSGDHYIKHMYFNAFARENAAFTIAAMAPCPYVYAVIGKRAMEDPKLNKESVTSKWFQFYSTEMDELVDVFDQLMDRLTKHCSETEKKEIKENFLQSTIHERHFFNMAYINEKWEYGGNNNE”, the protein production result was “not failed”.
With “RDRRDSRLRVAASMTIAEYLLPGWLVALRAQLPDTAVSLLAGNSAAVAERLLADDADLGFVEGVSVPTGLDSAVIGHDRLIVVTAPGHPWARRRRPLEAAELAATPLILREKGSGTRQVLDAALGGLARPLIELSSTTAVK”, the protein production result is “failed”.
To “MSLNRVFIVDDDTLTCNLLKTIVEPIFGNVEAFQHPRAFLTLSLNKQDIIILDLMMPDMDGIEVIRHLAEHKSPASLILISGYDSGVLHSAETLALSCGLNVINTFTKPINTEVLTCFLTSLSNRQAEGHHHHHH” belongs “not failed”.
In the case of “MTIVVSRKFLAILARAIEGEVATDTIFTLLGLKVVVTLASLLPASVFLSVLMVLGRMYRDNEMTVFACAGVGPLRIYRSILLFAGPVCVLGAFLSLQAMPWSERLSQELISKDEKGADVRGIKAGRFNEFSQGDVVLYAEQLNTDKTMSRVFAQSRRGDETGIVIAESGHMEINDAGDHFVVLNNGRRYQGVPGRADFVLNEFQAYGVRINPPEGSQAALKREAADSLHLWMSGRPRELAELQRRLAVPLGTFTLTLLAVPIARTSPRGGVWGNLISAFLIYIIYENLQKISQGLLATGKLSVWTSYAGIYAVMLLATSVLLARNSGWRWVRDTALGRR” it was “failed”; in that of “SILKIEKVLKRMREIKNELLQAQNPSELYLSSKTELQGLIGQLDEVSLEKNPCIREARRRAVIEVQTLITYIDLKE”, “not failed”.
To “MSRTILQPGQIEAAANIPPHLHQPSRDLFARRGERLLQLAEGHPMGDYLRLVAGLCRLQQALLDNPPALAPLDPERLRKSREHGMPPLAYDLLVREGAWLPWLDALLAGYPAPANAAVGAALEQLREAEEGQRKAWAIALLSGQFDLLPAALVPFLGAALQVAWSHWLLGLEEGAVVETESRTLCPACGSPPMAGMIRQGGKETGLRYLSCSLCACEWHYVRIKCSHCEESKHLAYLSLEHDGQPAEKAVLRAETCPSCQGYLKQFYLEFDRHADALADDLASLALDMRLAEDGYLRRSPNLLLAPGGE” belongs “not failed”; to “MEASRNRSLVGNNRSPEMNENDGEDVAASAAVEDVEVWDTLSNGFKRAQLYLDQNRDLIQRVNENHMSRIPDNVSRNVGLINEINGNISQVMEIYSDLSLNFAKKFDQRRRTTKDGDTTTTTTGS”, “failed”.
“MTEAPRKITDDPYGAWHLIRRLVMEQASAYWRRYALAFGLMAIAAAATSGSAFLLGKVINQAYVDRDLQGIMFWSVVTLVVFSLKGAATYGQSVILTQIKNAILANNQRRMFHKLMSESIGFFSQRHSSEFLARLTAGANSVTEVLNLLINAIGRDLLSLIGLVIVMVVQDPFMALFGLLVAPPAAFVVRKLVKRVKGLALTQFTGNAQILETMQESLQGIRTVKAFSLEKTMSDRIDANIAAVQANADKMAKVSNRSSPLMETLGGFAVAASLMYGGYRVVATGATPGEFFSFLTAFLLAYEPAKRLARLNIELNSGLVGARMLLEIIDSPPSEPDDSHKPALQLTEARVEFDHVSFAYRPDEPVLNAMSFVAEPGKMTALVGPSGGGKSTVLALLLRLYEVQSGEIRIDGQSTSTVSRESLRRQTAYVGQDVYLFRDTVRANIAFGKLGATEDEIVAAAKAACAHDFIMGFPLGYDTPVGEHGAQLSGGQRQRIAVARALLRDAPIVLLDEATAALDSESEKLVQEAIDRLARGRTTIVIAHRLHTIMHADSILVVEAGEIVEQGRHDDLLRRSGRYASFFRLQQRHATPLAPADATA”: the protein production entry is on record as “failed”.
Consider “MDYKPLAKEILKNIGTKSNVRSITHCVTRVRFVLNDESQANDEVIRDLDGVLDVVKQGGQYQVVIGPSVGSVYDAIIDVANFSDNVINSSEIAAPTSDETEEKGFLNKALGLISSIFIPVLGLLSGAGMIKAILSLCTVTGLLTAKSGTYIILSALGDTLFYFFPIVVGWSAARKFGLKEIYGVTLGAFLVYPTLATAASSTAVTTIFKGTIFALKYKMTFLGIPVALQSYSSTVIPIIIIVWFASYVYKYCDKVIPDVLKMVFVPFFTLLIAGVVSLIVIGPIAMILQNILSDTVLWLVGLNKGIAGFLLGFFWSILVMFGLHWAVIPFFAIDVAHYGYDVINPLIFAGGLAVLGSAIGVAIRARDERVKSMSVAAAISAFFGINEPALYGVLIPRKKVLLTSFLAAGIGGAIAGFSGSKLYSFGASGILGLPCFINPKGIDAGFIGLCISGIVAFVFALIAALIAGAKKDAKSKPAERHLAEHSDVYAPVAGESFDLTTVHDDVFSKLVLGDGIAVKPSDGKVYAPVTGIVRVAYPTGHAVGLASDDGEEVLIHIGIDTVNLEGKHFKMHVAQGMRVKKGDLLVDFDEAAISAAGYDTTVMMVVTKSERLKSVMPTQFGPVTKDTKVLDVELQSNSVESVTAVATND”, for which the protein production entry was “failed”.
For the sequence “MSHTAEIPMVPGSESPLELKPLKAVDPKAVYHRRAQRLLSLAKDSPLADYFELCRRVVAIQARLAAEADFGQLLAWGKDEAIPLSHLGSEADSYWQGLLQQLLSDLLPQVGEDLARVLRLLMQQSPEQLTSWGASLRQGHMSAVPARFSLFIWAAMGVYWSHWAPMVIKRIDQRKVAQQNLCPICGSHPVASVIVDQPRAGLRYLHCSLCESEWHYIRAHCTSCGQDKGTTLWSFDDTQAQVRIESCDECHGYTKMMFVEKSPLMDVVADDLATLMLDSELNAKGFGATTVNPLLLAHETEQ”, the protein production entry is reported as “failed”.
As for “MEAAVNAAEAYSHIRAVMGMVVGLSLARLLTGLAGFVQHPKKERIYLLHIGWVAFLFLMLVHFWWWEHRLSATGHVLDFGAFLFLILFCSLFYFLCVLLFPTDMKEYKGYEDYFFSRKSWFFAFLAALFVTDVGDTLLKGHDYLASLGPEYLIRTAIYVVLFTAAAFIDNRRFHRFLVIFALVYQIAWIFRTYDLLA”, the protein production result is given as “failed”.
Take “MSLAPYRVDFILLEHFSMASFTVAMDVLVTANLLRADSFQFTPLSLDGDRVLSDLGLELVATELSAAALKELDLLVVCGGLRTPLKYPELDRLLNDCAAHGMALGGLWNGAWFLGRAGVLDDYGCSIHPEQRASLSERSPQTRITPASFTLDRDRLSAASPNGAMELMLGLVRRLYGDGLAEGVEEILSFSGAREGHHHHHH”: the protein production entry is on record as “not failed”.
“MSLCINPQCSKPQNPDNVLFCQTCGSELLLEGRYRVVSVLGGGGFGKTFAVNDTRTQTARVLKVLINNHPKAVELFQREAQVLALLNYPGIPTVEANGYFVYFPRNIQEPMHCLIMEKIEGLDLGEYLRQRDYRPIDEKLALQWFKEVVTILHQVHQQGLFHRDIKPSNIMLRADGRLVLIDFGTARSVTGTYIAKQAVGQVTGVISAGYTPSEQINGQAVQQSDFFALGRTFIYLLTGKEPSDPTIYNYLKDELHWRDGLLSSESNSVPPTVGYGVPPTVGDRTNILPQFADLLDQMMERLPGQRPQNTHIILQRLADIEKNLHPSSPPPPKPKGWTRRRLITVVGFSSLGLTGALAISRLLPKTTVIVSQEGGGDYKTIGAAMQNAQPGMRILVRPGLYQESLVLDKALKIIGDGAKAEIIIESKGASCLVVKTDQAEIRGLTFRSRAGTENKQYFAVDISQGQIILADCDITSDSLSGIGIHGATANPVIQKCQIHDGKQSGIYLYENSRGTIEDCDLFGNTTTEITVDAAQPIIRRCKIRQDKEGGILFRNQAQGTVEDCDIFNNNLSGIEIRDSSNPIIQKCRIHDNQQGDGILVHLNGRGTVEDCNIFGNGFSGVEIRDRGNPVIRRCNINKNKYYGVYAYKNSMGTVENCDLTGNIRSAINVDETSQLQRSGNVELEHHHHHH”: the protein production entry was “failed”.
“MKLLLLLIIALEISFTTIVSLNVALIILALIYLLGHRTRLRTLGWLLLIPLLPAIGLWSTQYINGSGDKTLMAWVLFTRIYAFVFTGATFTLTTDVLQLTDSLEQNWHLPAKFAYGVLAAYNLVPRIQHEVQVIRAAGLMRGQVLSFWSPQLYFKAILVSINWSQNLARAMRSHGFVEDAPRTHYRQIPLTKLDWTIVISGVLLLQVGAFVIPWR”: the protein production result is “failed”.
For “MCDAHLRGPSGIITSPNFPIQYDNNAHCVWIITALNPSKAGGDPGNIQCNKEGLSVETQSLRLRNRSCLLGNSKDNGCCVPNPVHGTGLQVIKLAFEEFDLERGYDTLTVGDGGQDGDQKTVLYILTGTSVPDLIVSTNHQMWLLFQTDGSGSSLGFKASYEEIEQGSCGDPGIPAYGRREGSRFHHGDTLKFECQPAFELVGQKAITCQKNNQWSAKKPGCVCK”, the protein production entry is listed as “failed”.
As for “MTIQQWLFSFKGRIGRRDFWIWIGLWFAGMLALFSLAGKNLLDIQTAAFCLVCLLWPTAAVMVKRLHDRGRSGAWALLMILAWMLLAGNWVMLPGMWQWVVGRFIPTLILVMMLIDLGAFVGVQGENKFGKATQDVKFKAEP”, the protein production entry is “failed”.
As for “MKRFARKETIYLRGEEARTLYRLEEGLVRVVELLPDGRLITLRHVLPGDYFGEEALEGKAYRYTAEAMTEAVVQGLEPRAMDHEALHRVARNLARQMRRVQAYEAHLQTGELRARIARYLLFLADTPLSARDRQGIYVTVSHEEIADATASIRESVSKVLADLRREGLIATAYRRVYLLDLAALEREAGSALEAA”, the protein production result is given as “not failed”.
As to “MVTQKQRRLWAFLAALACVMWGISGLFAKSLFNISSDITPMWLSQIRMVTSGIILLIVAGILKQKPIATMKNKHDAWVIIAYGIFGLLPVQLFYFIVVQQANASIATILQFVGPFFVMGYLAFTHKQVMRRIDVIAAIFAFIGVVLLATHGRFNHLAITPSVLFWGLLSAVGVATNTLIPIGVLKRVSSLVVTGWGLLSAGICLMIVHPQMPHIPNTPHVWLDVLAVIVIGTLIPFQLMTNSLRFIKASTASLLDAFEPFSATLGSVLCFGLVMTPMDWIGSILVVLAAMALNISPKKKKGKLDGKSQD”, the protein production entry is given as “failed”.
With “MIKQVNPHFKEFLFDWNQKFQFLVGGYGSSKSYHVALKIVLKLLREKRTALVIREVYDTHRDSTFSLFDELVSDLKLDHIVRCVSSPMQIRFSNGSRIIFKGMDKPAKLKSINNISLIWIEECSEVKYEGFKELLGRLRHPTLPLHMILSTNPVGEDNWTFKHFFKDDREKRFVLDDKELYEKRIIVSNDTYYHHSTADDNLFLPESYVQQLEELKEYDPDLYRIARKGHFGVNGIRVLPQFEERPHEEVMTAISNINRPLKRVGMDFGFVESYNAVVRVAVDHEKKYLYIYWEYYKNGLTDDKTAEELKEFAETKELIKADSAEPKTIRYFQQHGFNMVGARKYQGSRLQYTKKIKRFRKIICSDRCENTIYELKPLAYATDKLGNIIEDEFTIDPHTLSAIWYALDDYEVTDLKEESKGRPQRSRPGRR”, the protein production result is “not failed”.

The values above are taken from a protein production outcome set (Wang et al. 2014).
